Here are results for one molecule from paper PMC3765780, “Pyocyanin-induced mucin production is associated with redox modification of FOXA2”.

The series deals with T1, FOXA2 (immunoprecipitated from control NCI-H292 cells) (Homo sapiens? (NCI-H292 cells), UniProt Q9Y261 1-457).
T1 sequence: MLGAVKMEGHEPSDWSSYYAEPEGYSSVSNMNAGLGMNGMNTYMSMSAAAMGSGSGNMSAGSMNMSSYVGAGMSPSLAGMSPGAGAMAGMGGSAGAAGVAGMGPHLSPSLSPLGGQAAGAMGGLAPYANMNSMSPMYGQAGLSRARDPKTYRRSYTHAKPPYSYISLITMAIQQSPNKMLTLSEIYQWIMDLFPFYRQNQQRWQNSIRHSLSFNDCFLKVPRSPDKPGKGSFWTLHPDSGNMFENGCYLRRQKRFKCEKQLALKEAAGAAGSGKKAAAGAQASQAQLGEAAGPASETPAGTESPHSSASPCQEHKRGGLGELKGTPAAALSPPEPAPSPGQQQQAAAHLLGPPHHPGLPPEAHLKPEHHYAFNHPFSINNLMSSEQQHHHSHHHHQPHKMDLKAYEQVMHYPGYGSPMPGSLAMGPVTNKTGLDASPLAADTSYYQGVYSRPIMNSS
Briefly: EMSA; untreated control cells; inhibited by 20-fold unlabeled probe and by anti-FOXA2 antibody; 10 mM Hepes pH 7.9, 1 mM EDTA, 5 mM MgCl2, 10% glycerol, DTT (printed '0.5 m MDTT', probably 0.5 mM), 1 mg/ml BSA, 1 ug poly(dI-dC); 2.5 ug FOXA2; 20 min, room. To be noted: protein: native; blunt.

B1: MUC5B promoter FOXA2 site probe (dsDNA)
DNA 1: CCTCCCCGAGAGCAAACACACGTGGCTGGA
DNA 2: TCCAGCCACGTGTGTTTGCTCTCGGGGAGG
Turning to B1, the binding result is recorded as “binds”.
